# Source: US20240100133
# Test system: Granzyme A wild type, recombinant human, His-tagged (GzmA-WT)
# Sequence (chain, as listed by the source): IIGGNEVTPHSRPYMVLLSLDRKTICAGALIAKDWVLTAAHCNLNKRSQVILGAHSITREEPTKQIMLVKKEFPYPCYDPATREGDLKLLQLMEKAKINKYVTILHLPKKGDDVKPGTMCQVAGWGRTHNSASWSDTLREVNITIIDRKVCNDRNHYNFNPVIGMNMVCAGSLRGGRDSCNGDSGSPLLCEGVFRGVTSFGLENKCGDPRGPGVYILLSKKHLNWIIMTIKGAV
# Sequence of human recombinant PDIA1 (Protein Disulfide Isomerase A1, residues 18-479, N-terminal His-tag) (chain, as listed by the source): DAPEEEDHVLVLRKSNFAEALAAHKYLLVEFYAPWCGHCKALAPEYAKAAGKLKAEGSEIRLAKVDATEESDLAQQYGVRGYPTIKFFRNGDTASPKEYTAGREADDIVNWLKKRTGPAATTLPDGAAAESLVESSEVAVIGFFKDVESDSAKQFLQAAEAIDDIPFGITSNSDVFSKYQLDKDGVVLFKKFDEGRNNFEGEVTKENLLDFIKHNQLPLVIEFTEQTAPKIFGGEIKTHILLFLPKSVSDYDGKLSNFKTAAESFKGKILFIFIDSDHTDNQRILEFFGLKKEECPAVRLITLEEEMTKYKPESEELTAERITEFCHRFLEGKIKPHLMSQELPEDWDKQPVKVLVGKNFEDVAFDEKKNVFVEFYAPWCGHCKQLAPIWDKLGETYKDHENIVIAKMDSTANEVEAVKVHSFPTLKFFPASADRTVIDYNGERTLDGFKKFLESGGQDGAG
substance,measurement,value
"human recombinant PDIA1 (Protein Disulfide Isomerase A1, residues 18-479, N-terminal His-tag)",conversion of GzmA homodimer into the 27 kDa monomer (silver stain and anti-GzmA western blot),"they incubated GzmA-WT with PDIA1 and observed the monomeric band at 27 KDa, which was not present when heat-inactivated PDIA1 was used"
